Data on 13 molecules can be found in US20130195757, “SPARC BINDING APTAMERS AND USES THEREOF” (ABRAXIS BIOSCIENCE, LLC, published 2013).

The target in data set [1] is T1, SPARC (osteonectin), recombinant human (Biol-SPARC) (Homo sapiens, UniProt P09486 P09486:18-303).
T1 sequence: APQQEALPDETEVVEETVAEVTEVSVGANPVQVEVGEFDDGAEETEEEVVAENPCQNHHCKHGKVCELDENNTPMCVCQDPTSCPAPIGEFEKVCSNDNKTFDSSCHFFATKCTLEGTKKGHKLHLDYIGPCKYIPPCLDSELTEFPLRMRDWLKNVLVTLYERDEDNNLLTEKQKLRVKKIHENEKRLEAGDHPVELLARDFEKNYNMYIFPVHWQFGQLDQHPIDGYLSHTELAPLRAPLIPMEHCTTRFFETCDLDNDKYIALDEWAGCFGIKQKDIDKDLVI
Put plainly: SPR; SPARC immobilized. Conditions: tags: Biol; amine-coupled to CM5 chip or injected as analyte.

In data set [2] the target is T1, SPARC (osteonectin), recombinant human …. Put plainly: SPR; aptamer immobilized on SA chip; 1:1 Langmuir. Conditions: tags: Biol; amine-coupled to CM5 chip or injected as analyte; label: 3'-biotin. On the procedure: 20 μM each of biotinylated Apt180 (SEQ ID NO: 1), biotinylated Apt187 (SEQ ID NO: 2), or a control scrambled aptamer with biotin coupled to the 3′-end were immobilized onto commercially prepared SA sensor chips (GE/Biacore International AB), which have preimmobilized streptavidin, to allow biotin capture. Typically 1200 to 1300 RU of biotinylated aptamers were immobilized.
Using methods as described in Examples 2-3, above, biotinylated Apt180 and Apt187 were immobilized on CM5 sensorchips immobilized with streptavidin (SA sensorchips). Biol-SPARC was injected at concentrations ranging from 34.9 nM to 840 nM over the immobilized Apt180 and Apt187. For Apt180, the resulting curves were best fitted by heterogeneous ligand model indicating the possible presence of multiple binding sites.
(In general: Surface plasmon resonance follows binding to a sensor surface in real time, without labels.)

The target is the same in data set [3]. Put plainly: SPR; SPARC immobilized. Conditions: tags: Biol; amine-coupled to CM5 chip or injected as analyte. On the procedure:
(§1) Purified SPARC was immobilized onto the surface of a CM5 biosensor chip (GE/Biacore International AB) by the use of the amine coupling kit and the Surface Preparation tool as present in the BIACORE 3000® control software. The biosensor chip surface was activated by injecting (35 μL at a flow rate of 5 μL/min) a mixture of N-hydroxysuccinimide (NHS) and N-ethyl-N′-(dimethyl-aminopropyl)-carbodiimide (EDC) (1:1; v/v) into one of the four flow channels (Fcs). Then the SPARC, diluted (0.1 mg/mL) in coupling buffer (10 mM sodium acetate, pH 4.5), was injected and bound to the activated carboxymethylated dextran surface via its primary amine groups. After coupling, the remaining active groups were blocked with ethanolamine (1 M). Purified recombinant human VEGF165 (PeproTech, Rocky Hill, N.J.) was diluted into 100 μg/mL in sodium acetate, pH 5.5 and immobilized onto the biosensor chip surface as a control, and VEGF DNA aptamers were injected (FIG. 3). To validate recovery, the resulting bound VEGF aptamers were eluted, and 2 μL were recovered, out of which 0.5 μL was amplified by PCR.
(§2) A concentration series of selected oligonucleotide DNA were injected over both reference surface and SPARC surface. Reference surfaces were used to subtract bulk refractive index responses from the specific SPARC binding signal as well as to ensure that there is no nonspecific interaction with the sensor chip surface.
The source holds these as a separate data set.

The target is the same in data set [4]. The data set is described as follows: SPR; heterogeneous ligand model KD1; KD2 0.103 mM; units as printed. Conditions: tags: Biol; amine-coupled to CM5 chip or injected as analyte. Here is the method: as §1
A concentration series of selected oligonucleotide DNA were injected over both reference surface and SPARC surface. […]

In data set [5] the target is T2, VEGF165 (Homo sapiens, UniProt P15692-4 P15692-4:27-191). The data set is described as follows: SPR; VEGF immobilized; no specific interaction. The note with it: tags: PeproTech; amine-coupled to CM5 chip; chain copies: 2.
Data set [6] deals with T2, VEGF165. Put plainly: SPR; negligible binding. The note with it: tags: PeproTech; amine-coupled to CM5 chip; chain copies: 2.
In data set [7] the target is T1, SPARC (osteonectin), recombinant human …. Put plainly: SPR; SPARC immobilized on CM5; HBS 10 mM HEPES 150 mM NaCl 0.005% P-20; approx 4 pM in p171. The note with it: tags: Biol; amine-coupled to CM5 chip or injected as analyte. Here is the method:
After coupling, the remaining active groups were blocked with ethanolamine (1 M). Purified recombinant human VEGF165 (PeproTech, Rocky Hill, N.J.) was diluted into 100 μg/mL in sodium acetate, pH 5.5 and immobilized onto the biosensor chip surface as a control, and VEGF DNA aptamers were injected (FIG. 3). To validate recovery, the resulting bound VEGF aptamers were eluted, and 2 μL were recovered, out of which 0.5 μL was amplified by PCR.
as §2
FIG. 21 depicts a sensorgram showing the binding and dissociation of Apt180 (SEQ ID NO: 1) to a Biol-SPARC immobilized CM5 sensorchip as described in Example 3. […] FIG. 22 is a sensorgram showing the binding and dissociation of Biol-SPARC and a modified Apt180 having the 3′ primer region of the aptamer removed. As described in Example 3, Biol-SPARC was immobilized to CM5 sensorchip and various concentrations (0.625 μM, 1.25 μM, 2.5 μM, 5 μM, and 10 μM) of the 3′ primer deleted Apt180, were injected over the Biol-SPARC sensor chip. The resulting KD calculated from this experiment was 1.45 nM. […]

The target in data set [8] is Bovine serum albumin (Bos taurus, UniProt P02769 P02769:25-607). The data set is described as follows: SPR; negligible binding. Conditions: label: 3'-biotin.
The target in data set [9] is T3, SPARC, mouse (from PYS-2 cells) (Mus musculus, UniProt P07214 P07214:18-302).
T3 sequence: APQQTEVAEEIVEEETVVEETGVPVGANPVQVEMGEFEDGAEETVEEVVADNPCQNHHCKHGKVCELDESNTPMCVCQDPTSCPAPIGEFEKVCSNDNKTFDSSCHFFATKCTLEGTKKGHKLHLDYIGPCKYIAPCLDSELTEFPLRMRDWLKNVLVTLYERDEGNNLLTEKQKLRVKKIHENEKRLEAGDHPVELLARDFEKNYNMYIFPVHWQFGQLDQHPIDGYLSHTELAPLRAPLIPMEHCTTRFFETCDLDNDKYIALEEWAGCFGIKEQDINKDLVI
The data set is described as follows: SPR; aptamer immobilized on SA chip. The note with it: tags: Sigma; PYS-2 parietal yolk sac cells; label: 3'-biotin.

T2 sequence (P15692 other isoform, or with tags, fused parts or gaps): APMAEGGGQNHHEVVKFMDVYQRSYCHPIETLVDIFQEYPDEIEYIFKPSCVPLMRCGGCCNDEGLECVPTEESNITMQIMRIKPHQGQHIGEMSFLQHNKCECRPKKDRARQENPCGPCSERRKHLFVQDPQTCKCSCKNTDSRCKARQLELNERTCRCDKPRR
Bovine serum albumin, sequence (P02769 25-607, one chain of several): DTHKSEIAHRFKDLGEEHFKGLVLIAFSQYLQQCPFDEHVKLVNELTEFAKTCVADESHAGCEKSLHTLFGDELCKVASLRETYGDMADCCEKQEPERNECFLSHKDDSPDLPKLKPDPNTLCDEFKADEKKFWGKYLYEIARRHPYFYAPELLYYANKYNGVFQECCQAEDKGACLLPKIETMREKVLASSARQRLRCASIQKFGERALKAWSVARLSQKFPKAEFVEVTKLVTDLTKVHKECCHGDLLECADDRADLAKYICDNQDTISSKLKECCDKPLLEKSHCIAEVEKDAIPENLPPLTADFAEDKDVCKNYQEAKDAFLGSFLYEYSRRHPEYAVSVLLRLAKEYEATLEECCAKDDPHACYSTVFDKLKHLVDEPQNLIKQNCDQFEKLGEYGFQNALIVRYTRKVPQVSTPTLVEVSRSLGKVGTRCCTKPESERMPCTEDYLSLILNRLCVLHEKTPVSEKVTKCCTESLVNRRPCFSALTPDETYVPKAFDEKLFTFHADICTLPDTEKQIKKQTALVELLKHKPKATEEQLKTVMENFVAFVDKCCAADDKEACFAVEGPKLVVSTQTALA

B1: Apt187 (ssDNA)
DNA: GAATTCGATGGTAACCAAGGCGGGGTTTTCGTATGCTCATTCCAGTGGTCATCTGATCTAGCCAAG
One may read the Kd as the concentration at which binding is half-saturated. For the molecule B1, in [1], the Kd was 0.19 nM.

B2: Apt187 3'-biotin (ssDNA)
DNA: GAATTCGATGGTAACCAAGGCGGGGTTTTCGTATGCTCATTCCAGTGGTCATCTGATCTAGCCAAG
In the case of B2, the Kd in data set [2] came out at 30.2 nM.

B3: Apt181 (ssDNA)
DNA: GAATTCGATGGTAACCAATTTCCGTATTGTTGGTTTGTGTTTGTGTCGTCATCTGATCTAGCCAAG
For the molecule B3, the equilibrium dissociation constant (Kd) in [3] came to 298 nM.

B4: Apt208 (AptBia208) (ssDNA)
DNA: GAATTCGATGGTAACCAAGCAATTTGTATTTTTGTGTATTTATTTTGTTCATCTGATCTAGCCAAG
Consider B4, for which, in data set [3], the Kd was found to be 100 nM.

B5: Apt211 (AptBia211) (ssDNA)
DNA: GAATTCGATGGTAACCAAGGAATATTTGGGGTTTTTTGCTTCTGGACGTCATCTGATCTAGCCAAG
As to B5, the Kd in data set [4] was 132000 nM.

B6: Apt191 (ssDNA)
DNA: GAATTCGATGGTAACCAAGGGGGTGTTTGTTTTTGTAGTCATTGTTGGTCATCTGATCTAGCCAAG
As to B6, the binding result in data set [5] is listed as “no binding”. Moreover, the Kd in data set [3] is 84.2 nM.

B7: Apt207 (AptBia207) (ssDNA)
DNA: GAATTCGATGGTAACCAAGTGTATTGTTTATTCTTCTGTTTCTTATTGTCATCTGATCTAGCCAAG
Turning to B7, in data set [3], the Kd was 139 nM.

B8: Apt184 (ssDNA)
DNA: GAATTCGATGGTAACCAACCCAATGTGTTTCGTTTGTTTTCATTTGTCATCTGATCTAGCCAAG
For the molecule B8, in data set [3], the Kd came out at 277 nM.

B9: Apt231 (AptBia231) (ssDNA)
DNA: GAATTCGATGGTAACCAATGCGCTTATGTTTTTTTTATTTTTTATGTTTCATCTGATCTAGCCAAG
On to B9, for which, in data set [3], the Kd was 45.4 nM.

B10: Apt100 (ssDNA)
DNA: GAATTCGATGGTAACCAAGGTCACTTTTTTATGTCGCTTAAATGTTGGTCATCTGATCTAGCCAAGC
In the case of B10, in data set [1], the Kd was about 300 nM.

B11: Apt180 (ssDNA)
DNA: GAATTCGATGGTAACCAAGGCTGTTCGGTATTTTGATATTTTTATGCGTCATCTGATCTAGCCAAG
For B11, in data set [6], the binding result is on record as “no binding”. Also, the equilibrium dissociation constant (Kd) in data set [7] was found to be 0.0044 nM.

B12: Apt180 3'-biotin (ssDNA)
DNA: GAATTCGATGGTAACCAAGGCTGTTCGGTATTTTGATATTTTTATGCGTCATCTGATCTAGCCAAG
Consider B12, for which the binding result in data set [8] is given as “no binding”. In data set [9], this molecule displayed a Kd of 1200 nM.

B13: Apt216 (AptBia216) (ssDNA)
DNA: GAATTCGATGGTAACCAATGATGTTATTTTTTTGTGCTTTTATTCTTTTCATCTGATCTAGCCAAG
With B13, the Kd in data set [3] amounted to 447 nM.
